Reference: patent US20150299276A1

How the values were obtained:
[1] = molecular target: rat α6/α3β2β3 nAChR (rat), P12390; test: cell-based or functional assay
[2] = molecular target: rat α6/α3β4 nAChR (rat), P12392; test: cell-based or functional assay

| Binder | IC50 (half-blocking dose) of ACh-gated current, Xenopus oocytes [1] [nM] | Ratio (IC50 of TxIB(G) / IC50 of TxIB) [1] | IC50 (half-blocking dose) of ACh-gated current, Xenopus oocytes [2] [nM] |
| --- | --- | --- | --- |
| GCCSDPPCRNKHPDLC (modifications not checked) [α-conotoxin TxIB/Txd4] | 28.4 | 1 | > 10000 |
| GCCSDPPCRNKHPDLCG (modifications not checked) [α-conotoxin TxIB/Txd4(G)] | 247 | 8.7 | > 10000 |
